# Measurements: the DeepSol protein solubility set
# Experiment: soluble on expression in E. coli; label from the status in PepcDB or PDB records
row,Sequence,soluble on expression in E. coli
1,MGSDKIHHHHHHMMSLSSAETIRASLHNALGKIESFKSCALLDYPDHPNIGDHLIWLGGVIYLTNVMKTQIKYTCSLHNFSPKTLEDNIGKSPIVFHGGGNLGDLWTEQQKFREGIISKYRDRPIVILPQSLYFRHEVNLIKTANIFNSHPNLTIFLRDERSYKIAREAFDKCQVFKAPDMAFQMTDLQDIFHIQNNKSSILYLSRKDREINQKQSENIFDLPNLVVEDWIAYEWKFGHPTKKLAKYVSTLYREVWQRGLATPIEWNSRQKWQNSYPYEVEFNHVYQPSIHQLSWSLMHSGVYQLKQHRLVITNRLHGHIICVLFNIPHVFLPNSYYKNEAFYEEWTKEIPDCRFIKDTSEVKIAVEELLASSTGKAIN,not soluble
2,MGSDKIHHHHHHMSETTGLQLRSLIKASGDLEVSLVPVSIPEPGPDEVVVRVEATPINPSDLGLLFGAADMSSAKASGTPDAPVITAKVPEAAMKAMAGRLDESMPVGNEGAGTVIKAGSSDAAQALLGKTVAMIGGAMYAQYRLIKAADCLKLQDGTTAAEGASCFVNPLTALGMTETMKREGHKALVHTAAASNLGQMLNRICLKDGIDLVNIVRSEAQAKLLREIGAKYVVDSTAPTFLDDLTEALVKTGATIAFDAIGGGRLAGQILGCMEAAIGKTATGPYSRYGSNVLKQVYIYGSLDTKPTEIVRNFGFAWAAGGWLLFPFLQKIGAADAAKLRARVAAEIKTTFASRYTKVVSLKEALTLDAIAIYNKRATGEKYLIDPTK,not soluble
3,MKNAFFVTASIACGKSTFIEIANSLGFKSISADKIAHKILDENALELEKIFSPFSLKNLLKKEKKIDRKILGEIVFNNKEAKKILENFTHPKIRAKILEQMQILDKENKAFFVEIPLFFESGAYENLGKVIVIYTPKELSLKRIMQRDKLSLEAAKARLDSQIDIEEKLKKADFIIKNTNSYADFRQECVKVIQEISKGNM,not soluble
4,MIIDIHGHYTTAPKALEDWRNRQIAGIKDPSVMPKVSELKISDDELQASIIENQLKKMQERGSDLTVFSPRASFMAHHIGDFNVSSTWAAICNELCYRVSQLFPDNFIGAAMLPQSPGVDPKTCIPELEKCVKEYGFVAINLNPDPSGGHWTSPPLTDRIWYPIYEKMVELEIPAMIHVSTSCNTCFHTTGAHYLNADTTAFMQCVAGDLFKDFPELKFVIPHGGGAVPYHWGRFRGLAQEMKKPLLEDHVLNNIFFDTCVYHQPGIDLLNTVIPVDNVLFASEMIGAVRGIDPRTGFYYDDTKRYIEASTILTPEEKQQIYEGNARRVYPRLDAALKAKGKLEHHHHHH,soluble
5,MRLSEAWAERKKNLSCQRGGHGAIITSITSFSEDFMTTMPAAEPVDAAERRAISPVVVYPNGTLEAPDLARLVQAKNGMEKIDEVIIPPRGGRTFTVPKGHFFRIVSIEGPQVGDLNLWNAHDLNERFFSGKTRALHATHVSVGNRLWSNLPSLRPMATITHDTLSWYGFDEDGGGVHDVIGTRCDPYTNKLLSGGDYHHCCHSNLTNALASARGLSFREAEPHVHDVLNVFMCTGFTRDTHQYFMKASPVRPGDYLELFAEIDLIGALSACPGGDCSATHSSDMAACYPLKVEIFRPDMAVLVGWPWPDRNAYRPVELEHHHHHH,not soluble
6,MTVIQKSSPTVKGVKTTTSDCTERRHSSSSPCKMSQNGSSGYYEGDVLLDDDALVSMPEATLIECFGNLAVTKRPAHLRPPAAFCLPFVSMNNDLTSGHALKHITLTSVFDALHPYVAMPYINRMDICSAMNVYWIRNCLEAEQSDLFHRFALEMQVHLSACFGCRVVLDIYGSTRNGFGTRFCDVDMSLSFSPSPPSWATNSDRVMRAVAKALVDFPKAVDERYVNAKVPIVRFRSSDMDMEADISYKNDLALHNTQLLQQYCKWDPERLPTLGVWVKAWAKRSGVGDASKGSLSSYAWIVMLIHYLQQVEPIPVLPCLQEMNHQKSENVYVQGYNTYYWKFVDTARTRRCRASVVDLFVGFLDYYATYFDYSTNVIQMVSKKLEFKPDRWCKYPMCIADPFETDHNLAQGVDMPMFEYIRSCMEHSKKVFTDRRMRSEFLSGYGFDVDEFDARHRGEMNMEMASQFGEFLLHKCIMVKQAPNRQFRDRSMSQSTSISNTSSISSSG,soluble
7,MFFKQFYDNHLSQASYLVGCQRTGEAIIIDPVRDLSKYIEVADSEGLTITQATETHIHADFASGIRDVAKRLNANIYVSGEGEDALGYKNMPSKTQFVKHGDIIQVGNVKLEVLHTPGHTPESISFLLTDLGGGSSVPMGLFSGDFIFVGDIGRPDLLEKSVQIKGSTEISAKQMYESVQNIKNLPDYVQIWPGHGAGSPCGKALGAIPISTIGYEKINNWAFNEIDETKFIESLTSNQPAPPHHFAQMKQVNQFGMNLYQSYDVYPSLDNKRVAFDLRSKEAFHGGHTKGTINIPYNKNFINQIGWYLDFEKDIDLIGDKSTVEKAKHTLQLIGFDKVAGYRLPKSGISTQSVHSADMTGKEEHVLDVRNDEEWNNGHLDQAVNIPHGKLLNENIPFNKEDKIYVHCQSGVRSSIAVGILESKGFENVVNIREGYQDFPESLKLEHHHHHH,soluble
8,MGSDKIHHHHHHMLFPDLANKIVREVRRLIKENIIIINIQGVIIASTDIERIGQFHEGALRCAKQKKTVIITKEDERRLQGVKAGMNLPLLFHDEVIGVIGITGEPENISQYGEILRKMTELLIHENYFLEQLELEHRSYEAFVFDWLQNTDWSPSFLDRAKTLGIDLYKKKQLILFSIDRNDTMLQRKVWQHVRNLLTKEHLFIRWGNDRFILFTATNSKEQTYQFLKRLKQDCETLFSVPLYIGIGQSVTPSNMNLSYEQALQALSVSLETKNIVFNEDLRLEMCLQDISAETREQFLKRTIENLLSSPELMHTLRLFIDYNQSYKQTAEQLHIHINTLHYRLKKIEEYTGLDPKQFKDLNILYFSLLLLDNHTKKNDKTD,not soluble
9,MAFLSTSVLIKCCILLLAGGLAESLTLGLAPALSTHSSGVSTQSVDLSQIKRGDEIQAHCLTPAETEVTECAGILKDVLSKNLHELQGLCNVKNKMGVPWVSVEELGQEIITGRLPFPSVGGTPVNDLVRVLVVAESNTPEETPEEEFYAYVELQTELYTFGLSDDNVVFTSDYMTVWMIDIPKSYVDVGMLTRATFLEQWPGAKVTVMIPYSSTFTWCGELGAISEESAPQPSLSARSPVCKNSARYSTSKFCEVDGCTAETGMEKMSLLTPFGGPPQQAKMNTCPCYYKYSVSPLPAMDHLILADLAGLDSLTSPVYVMAAYFDSTHENPVRPSSKLYHCALQMTSHDGVWTSTSSEQCPIRLVEGQSQNVLQVRVAPTSMPNLVGVSLMLEGQQYRLEYFGDH,soluble
10,MGSSHHHHHHSSGLVPRGSHMSQSTYSLEQLADFLKVEFQGNGATLLSGVEEIEEAKTAHITFLDNEKYAKHLKSSEAGAIIISRTQFQKYRDLNKNFLITSESPSLVFQKCLELFITPVDSGFPGIHPTAVIHPTAIIEDHVCIEPYAVVCQHAHVGSACHIGSGSVIGAYSTVGEHSYIHPRVVIRERVSIGKRVIIQPGAVIGSCGFGYVTSAFGQHKHLKHLGKVIIEDDVEIGANTTIDRGRFKHSVVREGSKIDNLVQIAHQVEVGQHSMIVAQAGIAGSTKIGNHVIIGGQAGITGHICIADHVIMMAQTGVTKSITSPGIYGGAPARPYQEIHRQVAKVRNLPRLEERIAALEKLVQKLEALSEQH,soluble
11,MASWSHPQFEKGAETAVPNSSSVPGDPSSMTRKNVLLIVVDQWRADFIPHLMRAEGREPFLKTPNLDRLCREGLTFRNHVTTCVPGGPARASLLTGLYLMNHRAVQNTVPLDQRHLNLGKALRAIGYDPALIGYTTTTPDPRTTSARDPRFTVLGDIMDGFRSVGAFEPNMEGYFGWVAQNGFELPENREDIWLPEGEHSVPGATDKPSRIPKEFSDSTFFTERALTYLKGRDGKPFFLHLGYYRPHPPFVASAPYHAMYKAEDMPAPIRAENPDAEAAQHPLMKHYIDHIRRGSFFHGAEGSGATLDEGEIRQMRATYCGLITEIDDCLGRVFAYLDETGQWDDTLIIFTSDHGEQLGDHHLLGKIGYNAESFRIPLVIKDAGQNRHAGQIEEGFSESIDVMPTILEWLGGETPRACDGRSLLPFLAEGKPSDWRTELHYEFDFRDVFYDQPQNSVQLSQDDCSLCVIEDENYKYVHFAALPPLFFDLKADPHEFSNLAGDPAYAALVRDYAQKALSWRLSHADRTLTHYRSSPQGLTTRNH,soluble
